Measurements published in article PMC5612953, “Stable MOB1 interaction with Hippo/MST is not essential for development and tissue growth control” (Nature Communications, 2017).

T1: recombinant full-length MOB1A(D63V) (human, UniProt Q9H8S9 1-216, D63V)
T1 construct: human MOB1A, full length; also called MOB1(D63V); source: E. coli, purified as MOB1A (33-216) (Ni-NTA)
T1 sequence (looked up): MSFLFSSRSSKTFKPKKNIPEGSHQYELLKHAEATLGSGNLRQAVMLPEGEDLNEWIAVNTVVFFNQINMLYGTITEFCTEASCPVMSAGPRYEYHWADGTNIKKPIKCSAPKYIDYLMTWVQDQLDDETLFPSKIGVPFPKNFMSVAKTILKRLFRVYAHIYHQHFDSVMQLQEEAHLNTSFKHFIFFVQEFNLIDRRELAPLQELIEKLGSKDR

T2: unphosphorylated full-length MOB1A(K104E/K105E), recombinant (human, UniProt Q9H8S9 1-216, K104E | K105E)
T2 sequence: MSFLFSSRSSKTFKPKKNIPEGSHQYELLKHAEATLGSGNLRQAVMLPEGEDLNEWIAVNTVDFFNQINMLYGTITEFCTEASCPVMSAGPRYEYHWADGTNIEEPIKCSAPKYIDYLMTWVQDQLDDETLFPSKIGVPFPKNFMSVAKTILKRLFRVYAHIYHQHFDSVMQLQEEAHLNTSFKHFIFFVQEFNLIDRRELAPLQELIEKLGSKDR

T3: phospho-MOB1(K104E/K105E), full length, recombinant (human, UniProt Q9H8S9 1-216, K104E | K105E, phosphorylated in vitro by MST2 (residues 2-308); the paper names Thr12 and Thr35 as the MST1/2 phosphorylation sites of MOB1)
T3 sequence: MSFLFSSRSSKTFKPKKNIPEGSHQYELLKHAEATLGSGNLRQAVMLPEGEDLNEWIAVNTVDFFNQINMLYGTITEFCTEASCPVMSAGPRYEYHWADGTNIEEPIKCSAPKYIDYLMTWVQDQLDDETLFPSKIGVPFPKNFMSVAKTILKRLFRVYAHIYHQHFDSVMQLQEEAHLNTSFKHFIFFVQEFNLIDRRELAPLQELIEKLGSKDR

T4: human MOB1A (residues 33-216) (human, UniProt Q9H8S9 33-216)
T4 construct: human MOB1A, residues 33-216; modified pET28a vector; a zinc is associated with MOB1 in the structure; also called MOB1 (33-216); MOB1A (33-216); source: E. coli BL21(DE3), purified (Ni-NTA; complex by Superdex 200)
T4 sequence (looked up): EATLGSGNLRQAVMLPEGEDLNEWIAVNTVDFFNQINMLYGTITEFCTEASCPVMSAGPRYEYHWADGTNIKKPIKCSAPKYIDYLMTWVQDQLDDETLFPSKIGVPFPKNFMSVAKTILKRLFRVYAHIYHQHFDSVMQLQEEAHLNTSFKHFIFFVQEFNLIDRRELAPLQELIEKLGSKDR

T5: unphosphorylated full-length MOB1A(K104E/K105E), recombinant (human, UniProt Q9H8S9 1-216, K104E | K105E)
T5 construct: human MOB1A, full length; also called Unphosphorylated MOB1(K104E/K105E); MOB1(K104E/K104E); source: E. coli, purified as MOB1A (33-216) (Ni-NTA)
T5 sequence (looked up): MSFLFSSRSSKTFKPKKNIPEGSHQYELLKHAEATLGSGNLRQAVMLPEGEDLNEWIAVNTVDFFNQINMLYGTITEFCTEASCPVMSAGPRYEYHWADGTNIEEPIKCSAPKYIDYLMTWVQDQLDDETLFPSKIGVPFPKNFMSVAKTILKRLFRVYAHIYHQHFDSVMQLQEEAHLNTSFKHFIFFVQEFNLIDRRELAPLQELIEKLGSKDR

T6: phospho-MOB1(K104E/K105E), full length, recombinant (human, UniProt Q9H8S9 1-216, K104E | K105E, phosphorylated in vitro by MST2 (residues 2-308); the paper names Thr12 and Thr35 as the MST1/2 phosphorylation sites of MOB1)
T6 construct: human MOB1A, full length; source: E. coli, purified (Ni-NTA), then phosphorylated in vitro by MST2 (2-308)
T6 sequence (looked up): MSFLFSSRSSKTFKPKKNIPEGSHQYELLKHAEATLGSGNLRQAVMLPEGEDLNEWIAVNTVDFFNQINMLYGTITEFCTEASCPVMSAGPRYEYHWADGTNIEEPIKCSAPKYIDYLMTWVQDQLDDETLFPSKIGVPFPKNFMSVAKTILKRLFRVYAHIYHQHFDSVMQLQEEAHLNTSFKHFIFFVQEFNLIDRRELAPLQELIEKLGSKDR

T7: non-phosphorylated full-length MOB1A wild-type (human, UniProt Q9H8S9 1-216)
T7 construct: human MOB1A, full length; pET28a vector; also called unphosphorylated full-length MOB1; non-phosphorylated MOB1; source: E. coli, purified as MOB1A (33-216) (Ni-NTA)
T7 sequence (looked up): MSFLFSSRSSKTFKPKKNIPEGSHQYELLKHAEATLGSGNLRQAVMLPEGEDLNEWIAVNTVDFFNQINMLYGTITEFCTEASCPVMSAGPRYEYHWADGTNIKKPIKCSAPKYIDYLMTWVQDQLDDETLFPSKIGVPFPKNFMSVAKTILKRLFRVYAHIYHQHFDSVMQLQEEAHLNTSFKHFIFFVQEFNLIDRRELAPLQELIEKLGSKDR

T8: human NDR2 (residues 25-88), N-terminal regulatory domain (NTR) (human, UniProt Q9Y2H1 25-88)
T8 chain: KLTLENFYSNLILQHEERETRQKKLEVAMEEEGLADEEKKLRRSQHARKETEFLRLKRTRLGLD

T9: LATS1 (640-703, V647Y) (human, UniProt O95835 640-703, V647Y)
T9 sequence: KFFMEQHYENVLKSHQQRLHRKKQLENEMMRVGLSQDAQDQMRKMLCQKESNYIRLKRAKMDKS

T10: human LATS1 (residues 640-703), NTR (human, UniProt O95835 640-703)
T10 chain: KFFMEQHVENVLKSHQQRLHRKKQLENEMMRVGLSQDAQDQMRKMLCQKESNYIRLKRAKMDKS

T11: LATS2 (603-666, V610Y) (human, UniProt Q9NRM7 603-666, V610Y)
T11 sequence: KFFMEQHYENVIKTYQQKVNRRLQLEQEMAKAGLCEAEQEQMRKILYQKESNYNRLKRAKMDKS

T12: human NDR1 (residues 24-87), NTR (human, UniProt Q15208 24-87)
T12 chain: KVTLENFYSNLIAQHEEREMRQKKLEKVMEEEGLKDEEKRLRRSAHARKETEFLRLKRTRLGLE

T13: human LATS2 (residues 603-666), NTR (human, UniProt Q9NRM7 603-666)
T13 chain: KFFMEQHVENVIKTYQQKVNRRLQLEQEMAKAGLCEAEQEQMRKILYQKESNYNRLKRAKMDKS

T14: LATS2 (603-666, V610Y) (human, UniProt Q9NRM7 603-666, V610Y)
T14 construct: human LATS2, residues 603-666 (NTR), codon-optimized synthetic gene; also called LATS2(V610Y); source: E. coli BL21(DE3), purified (Ni-NTA)
T14 sequence (looked up): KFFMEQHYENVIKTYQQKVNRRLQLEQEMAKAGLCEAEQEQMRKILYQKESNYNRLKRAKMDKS

T15: LATS1 (640-703, V647Y) (human, UniProt O95835 640-703, V647Y)
T15 construct: human LATS1, residues 640-703 (NTR); also called LATS1(V647Y); source: E. coli BL21(DE3), purified (Ni-NTA)
T15 sequence (looked up): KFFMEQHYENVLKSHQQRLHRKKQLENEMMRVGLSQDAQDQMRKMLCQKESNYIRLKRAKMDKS

T16: human NDR1 (residues 24-87), NTR (human, UniProt Q15208 24-87)
T16 construct: human NDR1, residues 24-87 (NTR); also called NTR of NDR1; source: E. coli BL21(DE3), purified (Ni-NTA)
T16 sequence (looked up): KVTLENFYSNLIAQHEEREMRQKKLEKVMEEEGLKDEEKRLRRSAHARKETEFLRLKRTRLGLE

B1: human NDR2 (residues 25-88), N-terminal regulatory domain (NTR) (domain or fragment, UniProt Q9Y2H1 25-88, looked up)
chain: KLTLENFYSNLILQHEERETRQKKLEVAMEEEGLADEEKKLRRSQHARKETEFLRLKRTRLGLD
notes: human NDR2, residues 25-88 (NTR); also called NDR2 (25-88); NTR of NDR2; source: E. coli BL21(DE3), purified (Ni-NTA)

How the values were obtained:
[1] = biological target: T1, recombinant full-length MOB1A(D63V); test: SEC; purified full-length MOB1 proteins incubated with NDR2 (25-88), LATS1 (618-697) or MST2 (2-392) at 4 °C for 20 min in assembly buffer (20 mM Tris pH 8.0, 200 mM NaCl, 5 mM DTT); HiLoad 16/60 Superdex 200; fractions by SDS-PAGE and Coomassie; for LATS1 MOB1A was first phosphorylated by MST2 (2-308); conditions: both partners purified
[2] = biological target: T2, unphosphorylated full-length …; test: ITC
[3] = biological target: T3, phospho-MOB1(K104E/K105E), full length, …; test: ITC; phosphorylated MOB1
[4] = biological target: T4, human MOB1A (residues 33-216); test: crystal structure; MOB1A (33-216) and NDR2 (25-88) incubated 1:1 at 4 °C, complex purified on Superdex 200; crystals at 14 °C in 17% PEG 3350, 0.1 M HEPES pH 7.5, 150 mM magnesium chloride; 2.10 Å; conditions: both partners purified
[5] = biological target: T5, unphosphorylated full-length …; test: ITC; 25 °C, ITC200; 25 mM HEPES pH 7.5, 200 mM NaCl, 1 mM EDTA; ~240 μM MOB1A injected (20 x 2 μl) into ~24 μM NDR1, NDR2, LATS1 or LATS2 fragment in the cell; single-site model; conditions: both partners purified
[6] = biological target: T6, phospho-MOB1(K104E/K105E), full length, …; test: as above; conditions: both partners purified
[7] = biological target: T7, non-phosphorylated full-length MOB1A …; test: as above; conditions: both partners purified
[8] = biological target: T8, human NDR2 (residues 25-88), N-terminal …; test: ITC
NDR1 (24-87, Y31V) [9] = biological target: T17, NDR1 (24-87, Y31V) (human, UniProt Q15208 24-87, Y31V); test: ITC; 25 °C, ITC200; 25 mM HEPES pH 7.5, 200 mM NaCl, 1 mM EDTA; ~240 μM MOB1A injected (20 x 2 μl) into ~24 μM NDR1, NDR2, LATS1 or LATS2 fragment in the cell; single-site model
LATS1 (640-703, V647Y) [10] = biological target: T9, LATS1 (640-703, V647Y); test: ITC; MOB1 phosphorylated by MST2
[11] = biological target: T10, human LATS1 (residues 640-703), NTR; test: ITC; MOB1 phosphorylated by MST2
NDR2 (25-88, Y32V) = NDR2 (25-88, Y32V) (human, UniProt Q9Y2H1 25-88, Y32V); test: ITC; MOB1 phosphorylated by MST2
LATS2 (603-666, V610Y) [12] = biological target: T11, LATS2 (603-666, V610Y); test: ITC; MOB1 phosphorylated by MST2
[13] = biological target: T12, human NDR1 (residues 24-87), NTR; test: ITC; MOB1 phosphorylated by MST2
NDR1 (24-87, Y31V) [14] = biological target: T17, NDR1 (24-87, Y31V); test: ITC; MOB1 phosphorylated by MST2
[15] = biological target: T13, human LATS2 (residues 603-666), NTR; test: ITC; MOB1 phosphorylated by MST2
LATS2 (603-666, V610Y) [16] = biological target: T14, LATS2 (603-666, V610Y); test: ITC; 25 °C, ITC200; 25 mM HEPES pH 7.5, 200 mM NaCl, 1 mM EDTA; ~240 μM MOB1A injected (20 x 2 μl) into ~24 μM NDR1, NDR2, LATS1 or LATS2 fragment in the cell; single-site model; conditions: both partners purified
LATS1 (640-703, V647Y) [17] = biological target: T15, LATS1 (640-703, V647Y); test: as above; conditions: both partners purified
[18] = biological target: T16, human NDR1 (residues 24-87), NTR; test: as above; conditions: both partners purified
[19] = biological target: B1; test: as above; conditions: both partners purified

binding result [1]	Kd [2]	Kd [3]	binding result [4]	binding result [5]	binding result [6]	binding result [7]	Kd [8]	fold decrease in affinity against wild-type NDR1 (NDR1 (24-87, Y31V) [9])	Kd (LATS1 (640-703, V647Y) [10])	Kd [11]	Kd (NDR2 (25-88, Y32V))	Kd (LATS2 (603-666, V610Y) [12])	Kd [13]	Kd (NDR1 (24-87, Y31V) [14])	Kd [15]	fold increase in affinity against wild-type LATS2 (LATS2 (603-666, V610Y) [16])	fold increase in affinity against wild-type LATS1 (LATS1 (640-703, V647Y) [17])	fold increase in affinity against LATS1 or LATS2 [18]	fold increase in affinity against LATS1 or LATS2 [19]	Binder
binds	16.9 µM	0.532 µM	binds	binds	binds	binds	–	–	–	–	–	–	–	–	–	–	–	–	–	B1
–	–	–	–	–	–	–	0.578 µM	20 fold	4.42 µM	19.6 µM	9.9 µM	1.54 µM	0.136 µM	2.82 µM	8.93 µM	5 fold	5 fold	≥ 15 fold	≥ 15 fold	MST2-phosphorylated full-length MOB1A (phospho-MOB1) (natural protein, human, UniProt Q9H8S9 1-216, looked up, phosphorylated in vitro by MST2 (residues 2-308); the paper names Thr12 and Thr35 as the MST1/2 phosphorylation sites of MOB1, human MOB1A, full length; the methods describe the phosphorylation reaction for MOB1A (33-216); results and legend call phospho-MOB1 full length; also called MST1/2-phosphorylated full-length MOB1; source: E. coli, purified (Ni-NTA), then phosphorylated in vitro by MST2 (2-308)) MSFLFSSRSSKTFKPKKNIPEGSHQYELLKHAEATLGSGNLRQAVMLPEGEDLNEWIAVNTVDFFNQINMLYGTITEFCTEASCPVMSAGPRYEYHWADGTNIKKPIKCSAPKYIDYLMTWVQDQLDDETLFPSKIGVPFPKNFMSVAKTILKRLFRVYAHIYHQHFDSVMQLQEEAHLNTSFKHFIFFVQEFNLIDRRELAPLQELIEKLGSKDR
